Measurements reported in PMC7584215, ““The structure of the Type III secretion system export gate with CdsO, an ATPase lever arm”” (PLoS Pathogens, 2020).

B1: CdsV C-terminal region (residues 345-710) from Chlamydia pneumoniae (domain or fragment)
chain: ASTTVGAAGDGAATVGDNPDDYSLTLPVILELGKDLSKLIQHKTKSGQSFVDDMIPKMRQALYQDIGIRYPGIHVRTDSPSLEGYDYMILLNEVPYVRGKIPPHHVLTNEVEDNLSRYNLPFITYKNAAGLPSAWVSEDAKAILEKAAIKYWTPLEVIILHLSYFFHKSSQEFLGIQEVRSMIEFMERSFPDLVKEVTRLIPLQKLTEIFKRLVQEQISIKDLRTILESLSEWAQTEKDTVLLTEYVRSSLKLYISFKFSQGQSAISVYLLDPEIEEMIRGAIKQTSAGSYLALDPDSVNLILKSMRNTITPTPAGGQPPVLLTAIDVRRYVRKLIETEFPDIAVISYQEILPEIRIQPLGRIQIF
notes: CdsV (export gate protein, SctV family), Chlamydia pneumoniae, residues 345-710, the cytoplasmic C-terminal region; Cloned into pET28 with the vector's N-terminal hexa-His tag and thrombin cleavage site; Homo-nonameric ring; also called WT CdsVc; soluble export gate; source: nonameric peak fractions pooled

What was measured:
[1] = biological target: B1; assay: crystal structure; CdsVC mixed with ~10% molar excess of CdsO_(25-110); 100 mM Bis-Tris pH 6.0, 4% PEG 3350, 200 mM ammonium acetate; refined to 4.6 Å; details: both partners purified
[2] = biological target: B1; assay: ITC; monomeric CdsO_(25-110) (2.2 mM) titrated into nonameric CdsVc (15.0 uM) or nonameric CdsVc L638A/D639A (12.1 uM); 20°C; 10 mM HEPES pH 7.5, 500 mM NaCl; 24 x 2 uL injections; details: both partners purified
[3] = biological target: the molecule itself; assay: crystal structure; CdsVC alone; hanging drop, 100 mM HEPES pH 6.75, 5% PEG-6000, 21°C; refined to 2.8 Å

| Binder | stoichiometry N [1] | Kd [2] | stoichiometry N [3] |
| --- | --- | --- | --- |
| CdsO residues 25-110 from Chlamydia pneumoniae (domain or fragment, CdsO (central stalk protein of the T3SS ATPase, SctO family), Chlamydia pneumoniae, residues 25-110 of the 168 residues of full-length CdsO; Cloned into pET28 as CdsV; Called monomeric in the ITC methods; also called CdsO_(25-110); central stalk protein) KEKRRLLEIEQEKLREKEAERDKVKNHYMQKIQQLRDLLDEGTTSDAVLQIKSYIKVVAVQLSEEEEKVNKQKEVVLAASKELEKA | 1 | 28 ± 3 µM | – |
| B1 | – | – | 9 |
